Source: article PMC9204313

Experiments:
[1] = target: CEP-BSA (21:1 molar ratio) (bovine (from the name BSA)) (UniProt P02769); assay: BLI; Octet K2; CEP-BSA or fibrinogen amine-coupled to AR2G biosensor; active αD I-domain 50-1000 nM in the mobile phase; 20 mM HEPES, 150 mM NaCl, 1 mM CaCl2, 1 mM MgCl2, 0.02% Tween-20, 0.02% BSA, pH 7.5; KD from a plot of response at equilibrium against concentration
[2] = target: Human fibrinogen (human) (UniProt P02671); assay: as above
Chain of UniProt P02671 (P02671 36-866, chain 1 of 3): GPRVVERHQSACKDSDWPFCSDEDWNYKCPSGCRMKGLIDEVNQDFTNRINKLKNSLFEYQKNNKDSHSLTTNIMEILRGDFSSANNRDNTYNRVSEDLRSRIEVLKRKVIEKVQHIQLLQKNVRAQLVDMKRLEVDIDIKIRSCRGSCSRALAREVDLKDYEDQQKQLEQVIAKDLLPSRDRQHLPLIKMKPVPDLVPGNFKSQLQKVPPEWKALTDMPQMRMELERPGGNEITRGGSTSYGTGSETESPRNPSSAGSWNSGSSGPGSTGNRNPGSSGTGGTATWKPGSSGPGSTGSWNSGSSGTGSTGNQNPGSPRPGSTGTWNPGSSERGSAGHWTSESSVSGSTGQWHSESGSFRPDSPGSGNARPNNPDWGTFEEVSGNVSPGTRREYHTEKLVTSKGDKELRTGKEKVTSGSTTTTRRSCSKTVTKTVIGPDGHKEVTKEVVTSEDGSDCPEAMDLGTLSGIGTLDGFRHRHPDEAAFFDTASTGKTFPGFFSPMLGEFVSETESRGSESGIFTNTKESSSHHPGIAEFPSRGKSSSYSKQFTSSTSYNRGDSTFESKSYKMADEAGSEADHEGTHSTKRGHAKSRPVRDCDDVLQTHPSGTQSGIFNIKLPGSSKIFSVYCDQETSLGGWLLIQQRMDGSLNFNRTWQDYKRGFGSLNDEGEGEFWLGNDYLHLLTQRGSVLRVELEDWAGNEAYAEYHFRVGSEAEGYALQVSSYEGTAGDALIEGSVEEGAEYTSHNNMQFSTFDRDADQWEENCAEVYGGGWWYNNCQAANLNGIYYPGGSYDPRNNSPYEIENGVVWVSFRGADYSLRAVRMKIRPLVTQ
Chain of UniProt P02671 (P02675 45-491, chain 2 of 3, further chain): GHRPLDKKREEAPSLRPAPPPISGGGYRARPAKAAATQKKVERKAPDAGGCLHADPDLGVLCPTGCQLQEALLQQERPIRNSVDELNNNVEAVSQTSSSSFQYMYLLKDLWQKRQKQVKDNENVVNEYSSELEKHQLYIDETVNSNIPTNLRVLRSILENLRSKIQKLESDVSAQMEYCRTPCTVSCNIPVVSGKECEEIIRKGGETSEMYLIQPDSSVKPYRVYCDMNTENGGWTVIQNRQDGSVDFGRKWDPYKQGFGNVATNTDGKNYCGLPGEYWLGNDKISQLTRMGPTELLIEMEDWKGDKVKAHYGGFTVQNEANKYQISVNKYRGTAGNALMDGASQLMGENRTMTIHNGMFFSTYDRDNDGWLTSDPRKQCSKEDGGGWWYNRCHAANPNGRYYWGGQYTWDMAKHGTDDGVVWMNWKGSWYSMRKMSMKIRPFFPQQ
Chain of UniProt P02671 (P02679 27-453, chain 3 of 3, further chain): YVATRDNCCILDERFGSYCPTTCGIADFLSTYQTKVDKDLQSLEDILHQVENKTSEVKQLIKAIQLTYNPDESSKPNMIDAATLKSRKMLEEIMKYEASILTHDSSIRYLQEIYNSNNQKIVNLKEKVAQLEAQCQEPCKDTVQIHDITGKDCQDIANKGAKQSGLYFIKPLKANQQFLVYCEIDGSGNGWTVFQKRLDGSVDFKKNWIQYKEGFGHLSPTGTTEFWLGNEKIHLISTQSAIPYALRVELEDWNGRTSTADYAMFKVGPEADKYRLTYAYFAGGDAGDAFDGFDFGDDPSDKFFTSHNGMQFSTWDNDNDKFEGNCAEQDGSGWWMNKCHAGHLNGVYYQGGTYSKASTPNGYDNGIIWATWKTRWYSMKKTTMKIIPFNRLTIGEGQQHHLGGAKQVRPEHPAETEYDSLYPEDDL

Kd [1]: 0.1 µM
Kd [2]: 0.22 µM
Substance: recombinant αD I-domain in an active conformation (domain or fragment)
